Test results taken from patent US20080286284A1.
pKd: −log10 of the molar value. Several values for one entry are separate records, joined by “and”; a condition that tells them apart may be missing. Equal values may be shown once. One block for each substance: values may come before it.

Columns and labels:
[1] = biological target: prostate specific membrane antigen (PSMA), full-length human (human) (UniProt Q04609); test: fraction of radiolabeled mAb bound, PSMA-3T3 cells
[2] = biological target: prostate specific membrane antigen (PSMA), full-length human (human) (UniProt Q04609); test: average over PSMA-expressing cells
[3] = biological target: recombinant soluble PSMA (rsPSMA) (human) (UniProt Q04609); test: Biacore, rsPSMA
recombinant soluble PSMA (rsPSMA) (human), sequence (Q04609 44-750): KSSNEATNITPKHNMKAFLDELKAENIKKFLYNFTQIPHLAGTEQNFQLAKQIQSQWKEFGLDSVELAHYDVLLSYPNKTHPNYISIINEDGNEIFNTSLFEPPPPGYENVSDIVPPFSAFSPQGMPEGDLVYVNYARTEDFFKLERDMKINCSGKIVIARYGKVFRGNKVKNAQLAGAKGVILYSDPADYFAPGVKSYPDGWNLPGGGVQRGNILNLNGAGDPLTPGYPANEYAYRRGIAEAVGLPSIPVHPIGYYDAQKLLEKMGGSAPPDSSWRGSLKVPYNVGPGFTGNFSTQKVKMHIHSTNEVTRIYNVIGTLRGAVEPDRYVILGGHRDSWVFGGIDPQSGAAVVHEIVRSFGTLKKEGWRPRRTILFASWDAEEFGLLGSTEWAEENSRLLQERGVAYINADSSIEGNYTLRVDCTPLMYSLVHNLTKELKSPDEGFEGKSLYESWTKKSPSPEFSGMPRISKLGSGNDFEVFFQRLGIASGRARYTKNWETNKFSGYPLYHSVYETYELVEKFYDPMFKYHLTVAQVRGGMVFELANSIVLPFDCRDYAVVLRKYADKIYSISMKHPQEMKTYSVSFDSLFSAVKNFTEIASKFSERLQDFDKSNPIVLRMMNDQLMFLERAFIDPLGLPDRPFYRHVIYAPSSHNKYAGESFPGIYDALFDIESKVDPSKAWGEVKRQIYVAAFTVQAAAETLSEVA

[4] = biological target: prostate specific membrane antigen (PSMA), full-length human (human) (UniProt Q04609); test: cell-based or functional assay

prostate specific membrane antigen (PSMA), full-length human (human), sequence (Q04609 whole entry): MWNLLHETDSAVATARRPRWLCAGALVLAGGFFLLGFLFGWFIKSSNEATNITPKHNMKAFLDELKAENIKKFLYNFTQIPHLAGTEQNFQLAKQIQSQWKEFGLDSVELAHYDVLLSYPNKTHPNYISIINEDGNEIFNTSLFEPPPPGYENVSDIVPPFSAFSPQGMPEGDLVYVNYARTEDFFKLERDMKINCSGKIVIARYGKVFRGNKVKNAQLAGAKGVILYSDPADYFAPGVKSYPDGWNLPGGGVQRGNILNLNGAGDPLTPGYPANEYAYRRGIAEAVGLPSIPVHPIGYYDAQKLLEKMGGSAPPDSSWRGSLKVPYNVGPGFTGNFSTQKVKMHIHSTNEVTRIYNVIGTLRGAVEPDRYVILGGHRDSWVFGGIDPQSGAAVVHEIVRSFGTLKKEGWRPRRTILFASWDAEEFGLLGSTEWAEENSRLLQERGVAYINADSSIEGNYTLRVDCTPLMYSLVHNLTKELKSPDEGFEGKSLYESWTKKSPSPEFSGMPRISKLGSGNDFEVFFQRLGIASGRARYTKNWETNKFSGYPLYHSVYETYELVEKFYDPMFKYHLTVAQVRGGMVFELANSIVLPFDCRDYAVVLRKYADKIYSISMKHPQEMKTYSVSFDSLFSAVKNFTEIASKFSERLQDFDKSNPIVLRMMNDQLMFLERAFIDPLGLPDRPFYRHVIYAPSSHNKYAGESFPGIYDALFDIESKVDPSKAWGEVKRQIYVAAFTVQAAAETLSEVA

Immunoreactivity (%) [1]: 58.5% and 54.9%
Immunoreactivity (%) [2]: 56.7%
Substance: ^111In radiolabeled CHX-A″-DTPA mJ591 (antibody)

pKd [3]: 9.20
Substance: Control (Table 6, Biacore) (antibody)

Substance: mAb J591 (murine) (antibody)
LD50, immunotoxin cytotoxicity (Mab-Zap saporin secondary) on C4-2 cells [4]: 88.2 pM
LD50, immunotoxin cytotoxicity (Mab-Zap saporin secondary) on PSMA-3T3 cells [4]: 89 pM
